Measured values reported in the nanobody polyreactivity screen of Harvey et al. (2022).

Test: yeast display, Sf9 membrane polyspecificity reagent, FACS + sequencing; frameworks hold sequencing errors
How it was run: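 After 36–48 hours of galactose induction, yeast (Saccharomyces cerevisiae BJ5465) displaying a synthetic nanobody library were stained at 4 °C for 1 hour with 10% biotinylated, detergent-solubilized Sf9 membrane reagent. Streptavidin microbeads enriched the stained cells before FACS sorting into low and high (top ~1%) gates on anti-HA and streptavidin fluorescence. Each clone's polyreactivity label reflects its gate of origin.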

Sequence | polyreactivity (PSR sort gate)
QVQLVESGGGLVQAGGSLPLSCAASGGTFYKYAMGWYRQAPGKERELVARISRGGSTYYADSVKGRFTISRDNAKNTVYLQMTSLKPEDTAVYYCAKLWYAVWPIVVQYNYWGQGTQVNVSS | high polyreactivity
QVQLVESGGGLVQAGGSLPLSCAASGRIFVVYAMGWYRQAPGKERDLVAGISWTDGRTYYADSVKGRFTISRDNAKNTVYLLMNSLKPEDTAVYYCNKARTSQYHHTYWRTYGYWGQGTQVTLSS | low polyreactivity
QVQLVESGGGLVQAGGSLPLSCAASGRTFGSYVMRWYRQAPGKERELVATISRRGGTTYYADSVKGRFTISRDNAKNTVYLQMNSLKPEDTAVYYCAAKYFATRYDYWGQGTQVTVSS | high polyreactivity
QVQLVESGGGLVQAGGSLPLSCAASGRTIYRYAMGSYRQAPGKERELDAAIRRSGDSTYYADSVKGRFTISRDIAKKTVYLQMNSLKPEDTAVYYCNAVASGRTYDYWGQGTQVTVSS | high polyreactivity
QVQLVESGGGLVQAGGSLPLSCAASGSIFFFNAMGWYRQATGKEREFVAAITSSSGRTYYADSVKGRFTISRDNANNTVYLQMNSLKPEDSAVYFCAAQVPEDTETVDYWGQGTQVTVSS | low polyreactivity
QVQLVESGGGLVQAGGSLPLSCAASGSIFKPYAMGWYRQAPGKERELVAVISWRGGSTYYADSVKGRFTISRDNAKNTVYLQMNSLKPEDTAVYYCAARRYRYFDGTVPLDYWGQGTQVTVSS | high polyreactivity
QVQLVESGGGLVQAGGSLPLSCAASGSTFGYNAMGWYRQAPGKERELVAAITWTGASTYYADSVKGRFTISRDNAKNTVYLQMNSLKPEDTAVYYCNARFGKRGYSPPYDYWGQGTQVTVSS | low polyreactivity
QVQLVESGGGLVQAGGSLPLSCAASGSTFSYYAMGWYRQAPGKERELVAAITSGGSTYYADSVKGRFTISRDNAKNTVYLQMNSLKPEDTAVYYCNAEPYTSSGGYRAYDFDYWGQGTQVTVSS | low polyreactivity
QVQLVESGGGLVQAGGSLPLSCASYGSIIVGNVMGWYRQAPGKESELVAAMTSSGTSTFYADSVKGRFTNSRDIAKNTVYLQMNSLKPEVTAVYYCAVDLYWSYFNGSLGYRYYFWGQGTQLTVSS | high polyreactivity
QVQLVESGGGLVQAGGSLPLSGAPSGSTFGYNTMGWSRQAPGKESELVAAITSGGRTYYADSVKGRFTISRDNAKNTVYLQRNSLKPEDTAVYYCAAYYWWGYPENDYWVQGTQVTVSS | high polyreactivity
QVQLVESGGGLVQAGGSLPLSSAASGLIFSWYAMGWYRQAPAKDSELVAAIDQSGDSTYYADSVKGRFTISRDNAKNTVYLQMNSLKPEDTAVYYCAAQSYDYWYDYDYWGQGTQVTVSS | high polyreactivity
QVQLVESGGGLVQAGGSLPLTCAASGLTFYDYPMGWYRKATVKERELVAAIRRSGTRTYYADSVKGRFTISRDYAKNTVYLQMNSLKPEDTAVYYCNTVRRLKRYSSYGHDYWGQGTQVTVSS | high polyreactivity
QVQLVESGGGLVQAGGSLRFSCAAPGTIFPRYAMGWYRQAPGKERELVAAISRSGGSTYYADSVKGRFTISRDNAKNTVYLQMNSLKPEDTAVYYCATDKVSHRRYDYWGQGTQVTVSS | high polyreactivity
QVQLVESGGGLVQAGGSLRFSCAASGGIFWHYTMGWYRQAHGKERELVAAITRRGGSTYYADSVKGRFTISRDNAKNTVYLQINSLKPEDTAVYYCAADFLPQSYNWYDYWGQGTQVTVAS | low polyreactivity
QVQLVESGGGLVQAGGSLRFSCAASGGTFGYNAMGWYRQAPGKDRELVARISWRGASTYYADSVKGRFTLSRDNAKNTVYLQMNSLKPEDTAVYYCAAYSFNYQPAYAYRGEDYWGQGTQVTVSS | low polyreactivity
QVQLVESGGGLVQAGGSLRFSCAASGITFTEYAMGWYTQAPGTERELVAAITGSGTSTYYADSVKGRFTISRDNAKNTVYLHMNSLKPEDTAVYYCAARTRGTAYNYWGQGTQVTVSS | high polyreactivity
QVQLVESGGGLVQAGGSLRFSCAASGITFVDYAMGWYRQAPGKEREFVAGISESGGSTYYADSVKGRFTISRDNAKNTVYLQMNSLKPEDTAVYYCAADPYVDSYDSWGQGTQVTVSS | low polyreactivity
QVQLVESGGGLVQAGGSLRFSCAASGLIFGSYTMGWSRQAPGKERELVAGISRGGGITYYADSVKGRFTISRDNAKNTVYLQMNSLKPEDTAVYYCAAGYFSYSPYGSYKFGYWGQGTQVTVSS | high polyreactivity
QVQLVESGGGLVQAGGSLRFSCAASGRIFRRYAMGWYRQAPGKERELVAAITQSGDSTYYADSVKGRFTISRDNAKNTVYLQMNSLKPEDTAVYYCAAAGGPYRYNYWGQGTQVTVSS | high polyreactivity
QVQLVESGGGLVQAGGSLRFSCAASGRIFSGNGMGWYRQAPGKEREFVAAIRFSSGSTYYADSVKGRFTISRDNAKNTVYLQMNSLKPEDTAVYYCARPSIPRRYDYWGQGTQVTVSS | high polyreactivity
QVQLVESGGGLVQAGGSLRFSCAASGRIFTPYAMGWYRQAPGKERELVAVIRDGSTYYADSVKGRFTISRDNAKNTVYLQMNSLKPEDTAVYYCRYDIWVWWSGAYDYWGQGTQVTVSS | low polyreactivity
QVQLVESGGGLVQAGGSLRFSCAASGRIFYLNAMGWYRQAPGKERELVAAISRSGGRTYYADSEKGRFTISRDNAKHTVYLQMNSLKPEDTAVYYCAADTAGATPERNYWGQGPQVTVSS | high polyreactivity

Sequence | polyreactivity (PSR sort gate)
QVQLVESGGGLVQAGGSLRFSCAASGRISPSYAMGWNRKAPGKERELVAAIYRGGSTSYADSVKGRFTISRDNAKNNVYLQMNSLKPEDTAVYYCATRGPRYRYYYWGQGTQVTVSS | high polyreactivity
QVQLVESGGGLVQAGGSLRFSCAASGRTFYRYAMGWYRQAPGKERVLVAAISGSGGSTYYADSVKGRFTISRDNAKNTVYLQMNSLKPEDTAVYYCAADGPSHHGDDDYWGQGTQVTVSS | low polyreactivity
QVQLVESGGGLVQAGGSLRFSCAASGSICGGYAMGWYRQAPGKERELVASITKSGDSTYADSVKGRFTISRDNAKNTVYLQMNSLKPEDTAVYYSAADSTFGNFDYWGQGTQVTVSS | low polyreactivity
QVQLVESGGGLVQAGGSLRFSCAASGSTFQYYAMGWYRQAPGKEREFVAAIRSSGGTTYYADSVKGRFTLSRDNAKNTVYLQMNSLKPEDTAVYYCAATTKYNGRRSYFKFDYWGQGTQVTVSS | high polyreactivity
QVQLVESGGGLVQAGGSLRFSCAASGSTFTAYVMGWYRQAPGKERELVAAISRSGGRTYYADSVKGRFTISRDNAKKTVYLQMNSLKPEDTAVYYCAARSGPLAYDYWGQGTQVTVSS | high polyreactivity
QVQLVESGGGLVQAGGSLRFSCAASGSTFTVYAMGWYRQAPGQERELVAAITNGGRTYYADSVKGRFTISRDNAKNTVYLQMNSLKPEDTAVYYCAADVYYDDYLYDYWGQGTQVTVSS | high polyreactivity
QVQLVESGGGLVQAGGSLRFSCAASGSTISSNVMGWYRQAPGKERELVAAITKTGGRTYYADSVKGRFTISRDNAKNTVYLQMNSLKPEDTAFYYCAAKSKPRGTSSDYYYWGQGTQVTVSS | high polyreactivity
QVQLVESGGGLVQAGGSLRFSCAASGTFDYYDMGWYRQAPGKEWELVAGITSGGSTDYADSEKGRFTISRDNAKNTVYLQMNSLKPEDTAVYYCAADPFRIHTYDYWGQGTQVTVSS | low polyreactivity
QVQLVESGGGLVQAGGSLRFSCAASGTFVPYAMGWYRQAPGKEMELVARITWRGGSTYYADSVKGRFTISRDNAKNTVYLQMNSLKPEDTAVYYCATVSDNRYYYWGQGTQVTVSS | low polyreactivity
QVQLVESGGGLVQAGGSLRFSCADSGSIFRYAMGWYRQAPGKERELVAGMSASGGRTYYADSVKGRFTISRDNAKNTVYLQMNSLKPEDTAVYYCNAVTREYQRPPVPRSYLYDYWGQGTQVTVSS | high polyreactivity
QVQLVESGGGLVQAGGSLRFSCAPSGITFRFYAMGCYRQAPGKESEFVAAISSRGGRTYYADSVKGRFTISRDYAKNTVYLQMNSLKPEDTAVYYCAAGKIGRYHYDYWGQGTQVTVSS | high polyreactivity
QVQLVESGGGLVQAGGSLRFSCPASGLIFYYYVMGWYRQAPGKEREFVAAIRYRSSSTYYADSVKGRFTISRVNAKNTVYLQMNSVKPEDTAVYYCGADIYTYNLFYHGRWLDYNYWGQGTQVTVSS | high polyreactivity
QVQLVESGGGLVQAGGSLRIICAASGRIFRENAMGWYRQAPGKAREWVAAISSGGSTYYADSVKGRFTISRDNAKNTDYLQMNSLKPEDPAVYYCAADLSWSRVVFGDYDYWGQGTHVTVSS | low polyreactivity
QVQLVESGGGLVQAGGSLRIICAASGRIFYSNGMGWYRQAPGKERELVAGITRGGSTNYADSVKGRFTISRDNAKNTVYLQMISLKPEDTAVFYCAANQLHYRPSRFVYYGYRLYDYWGHGTQVTVSS | low polyreactivity
QVQLVESGGGLVQAGGSLRIICAASGTTFVYNDMGWYRQAPGKEGELVAGITTSGGSTYYADSVKGRFTISRDNAKNTVYLQRNSLKPEDTAVYYWAAPAFSAWLEMDYWGQGTQVTVSS | low polyreactivity
QVQLVESGGGLVQAGGSLRISCAASGFIFFYAMGWYRQAPGKERELVASIDSGVSTDYADSVKGRLTISRDNAKNTVYLQMNSLKPEDNAVYYCAADPWSSLNYDYWGQGTQVTVSS | low polyreactivity
QVQLVESGGGLVQAGGSLRISCAASGFIFGPNAMGWYRQAPGKERELVAAISYSGGRTYYADSVKGRFTISRDNAKNTVYLQMNILKPEDTAVYYCAQPGRYWGQGTQVTVSS | high polyreactivity
QVQLVESGGGLVQAGGSLRISCAASGFIFIAYAMGWYRQAPGKERELVAAISKSGGNTYYADSVKGRFTISRDNAKNTVYLQMNSLKPEDTAVYYCATRPCYWRYEYWGQGTQVTVSA | high polyreactivity
QVQLVESGGGLVQAGGSLRISCAASGFIFRPNAMGWYRQAPGKERELVAAITRDGDRTYYADSVKGRFTISRDNAKNTVYLQMNSLKPEDTAVYYCAADVIQWWTRYYTWEYDYWGQGTQVTVSS | low polyreactivity
QVQLVESGGGLVQAGGSLRISCAASGFIFRYYAMGWYRQAPGKERELVARITNGGSTKYSDSVKGRFTISRDNAKTTVYLQMNSLKPEDTAVYYCNTDGLVRNGPFFSWGQGTQVTVSS | low polyreactivity
QVQLVESGGGLVQAGGSLRISCAASGFIFTSKAMGWHRQAPGKERELVAAITKSGGSTYYADSVKGRFTISRDNAKNTVYLQMNSLKPEDTAVYYCAAYPTSRYKYEYWGQGTQVTVSS | high polyreactivity
